From US20190160180A1 (FUSION PHARMACEUTICALS, published 2019)

Experiments:
[1] = molecular target: T1, human Endosialin expressed by Sjsa-1 cells (human, UniProt Q9HCU0 18-757); experiment: flow cytometry on Sjsa-1 cells
T1 construct: Endogenous Endosialin on human cell lines; also called Endosialin present on the cell plasma membrane; Endosialin on cell surface (Sjsa-1, T/G HA-VSMC, A673, SKNAS, A375 cells)
T1 sequence: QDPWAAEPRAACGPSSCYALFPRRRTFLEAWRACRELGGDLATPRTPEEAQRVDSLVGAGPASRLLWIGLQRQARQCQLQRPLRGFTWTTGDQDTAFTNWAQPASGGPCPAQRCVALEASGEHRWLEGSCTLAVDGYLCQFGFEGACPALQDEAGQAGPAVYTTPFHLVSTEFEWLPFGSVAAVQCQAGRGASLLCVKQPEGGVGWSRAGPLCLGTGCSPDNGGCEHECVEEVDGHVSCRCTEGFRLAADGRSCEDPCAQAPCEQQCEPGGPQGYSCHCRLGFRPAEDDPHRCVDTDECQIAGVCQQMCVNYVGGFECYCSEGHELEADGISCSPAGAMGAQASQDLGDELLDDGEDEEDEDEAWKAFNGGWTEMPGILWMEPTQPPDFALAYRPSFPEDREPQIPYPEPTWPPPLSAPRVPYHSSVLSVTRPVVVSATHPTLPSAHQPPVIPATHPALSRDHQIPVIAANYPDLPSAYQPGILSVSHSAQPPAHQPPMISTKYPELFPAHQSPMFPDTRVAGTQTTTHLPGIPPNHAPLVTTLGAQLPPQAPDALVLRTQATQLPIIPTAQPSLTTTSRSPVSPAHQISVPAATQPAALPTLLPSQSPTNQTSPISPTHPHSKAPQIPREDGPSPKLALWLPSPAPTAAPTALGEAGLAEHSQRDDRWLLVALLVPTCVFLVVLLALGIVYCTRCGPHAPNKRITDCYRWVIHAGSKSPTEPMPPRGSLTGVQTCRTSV
Experimental: (§1) Materials and Methods: (FIG. 2). (A) Ninety-six well plates (NUNC Maxisorp modules) were pre-coated with human recombinant Endosialin (1 μg/ml) overnight at 4° C. After blocking with 1% BSA in PBS+0.1% Tween-20 for 1 hour at 4° C., mMP-E-8.3, cMP-E-8.3, hMP-E-8.3 and a commercial antibody against Endosialin at the indicated concentration were added and incubated for 2 hours at room temperature. After several washes with PBS+0.1% Tween-20, a goat anti-mouse or anti-human IgG-HRP solution was added to each well and incubated for 1 hour at 37° C. After washes, stabilized chromogen was added to each well for at least 10 minutes in the dark, then the reaction was stopped with the addition of 1 N H₂SO4 and the absorbance was read at 450 nm with an ELISA reader. (B) Sjsa-1 human osteosarcoma cell line were stained with 1 μg/ml of mMP-E-8.3 antibody, or cMP-E-8.3 and hMP-E-8.3 at 100 ng/ml (blue line) and 1 ug/ml (green line) or with 1 μg/ml of a commercial antibody against Endosialin on ice for 30 minutes after incubation with a Goat anti-mouse/anti-human Alexa-488 conjugated antibodies for 1 hour on ice, cells were analyzed by flow cytometer (FACS). (C) Sjsa-1 human osteosarcoma cells were grown on glass coverslips for 24 hours. […]

[2] = molecular target: T2, human recombinant Endosialin (human, UniProt Q9HCU0 18-687, limits assumed); experiment: ELISA, plate coated with recombinant Endosialin
T2 construct: Coated on ELISA plates at 1 ug/ml; also called TEM-1; TEM1
T2 sequence: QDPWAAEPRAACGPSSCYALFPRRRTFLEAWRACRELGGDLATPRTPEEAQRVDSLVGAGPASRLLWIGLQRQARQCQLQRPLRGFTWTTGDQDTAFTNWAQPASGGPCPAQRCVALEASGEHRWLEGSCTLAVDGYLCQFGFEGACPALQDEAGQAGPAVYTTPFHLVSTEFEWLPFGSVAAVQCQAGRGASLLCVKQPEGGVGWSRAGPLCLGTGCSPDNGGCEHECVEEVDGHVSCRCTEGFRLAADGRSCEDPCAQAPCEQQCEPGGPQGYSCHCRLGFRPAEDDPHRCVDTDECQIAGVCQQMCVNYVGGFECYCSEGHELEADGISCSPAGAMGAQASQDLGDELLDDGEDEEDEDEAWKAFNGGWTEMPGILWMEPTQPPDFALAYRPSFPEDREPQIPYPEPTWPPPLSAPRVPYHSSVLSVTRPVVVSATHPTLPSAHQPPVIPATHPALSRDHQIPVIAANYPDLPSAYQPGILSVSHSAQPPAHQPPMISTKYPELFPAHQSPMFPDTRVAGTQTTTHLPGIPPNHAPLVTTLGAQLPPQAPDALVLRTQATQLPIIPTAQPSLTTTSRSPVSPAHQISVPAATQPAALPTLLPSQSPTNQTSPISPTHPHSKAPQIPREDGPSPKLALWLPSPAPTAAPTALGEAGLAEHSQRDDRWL
Experimental: as §1

B1: cMP-E-8.3 (antibody, V domains shown)
VH: QVQLQESGPGLVAPSQSLSITCTVSGFSLTGYGVNWVRQPPEKGLEWLGMIWVDGSTDYNSALKSRLNISKDKSKSQVFLKMNSLQTDDTARYYCARGGYGAMDYWGQGTSVTVSS
VL: DIQMNQSPSSLSASLGDTITITCHASQNINVWLTWYQQKPGNIPKLLIYKASNLHTGVPSRFSGSGSGTGFTLTISSLQPEDIATYYCQQGQSYPWTFGGGTKLEIKR
notes: also called chimeric cMP-E-8.3; chimerized version of mMP-E-8.3
- binding result [1]: binds
- binding result [2]: binds
